B1: Hairpin Ribozyme (parent)
chain: GUCCUCUUUCACGUGCGCGUGAAAGAGAGAAGUGAACCAGAGAAACACACGUUGUGGUAUAUUACCUGGUA

Variants of B1 are the subject of the data set. Briefly: self-cleavage, relative activity (ratio to wild type); higher = more cleavage; co-transcriptional.
Take U8G C66A: the self-cleavage was found to be 0.169. Turning to U8G C66G, the self-cleavage was 0.162. Then U7G U63G, with 0.145; and U7G U63A, with 0.179. In the case of U8A G51A it was 0.749; in that of U8A G51U, 0.92. Consider U8A G15A, for which the self-cleavage came out at 0.826.

U8A A30C: the self-cleavage is 0.172. Then U9A C65G, with 0.203; and U9A C65U, with 0.335.

Regarding U9A A26C, the self-cleavage came out at 0.364.

For the variant U9A A26U, the self-cleavage came to 0.424. As for U8C G34U, the self-cleavage is 1.32.

Regarding U8G C37U, the self-cleavage was 0.487.

With U8G C37G, the self-cleavage is 0.191. With U8A U58A, the self-cleavage amounted to 0.561.

Consider U8A U58C, for which the self-cleavage is 0.913. On to U8A U58G, for which the self-cleavage stood at 0.515. On to U7G G54A, for which the self-cleavage was found to be 0.642. Consider U7G G54U, for which the self-cleavage is 0.619. Then U9C C46A, with 0.122; and U7G C50G, with 0.143; and U8G G32C, with 0.12. On to U8G G32U, for which the self-cleavage was 0.0934. For U9C A41G, the self-cleavage turned out to be 0.706. For the variant U8G C48U, the self-cleavage is 0.0825. Consider U8G C48G, for which the self-cleavage amounted to 0.138. Then U8G C48A, with 0.146; and U8G G68U, with 0.268; and U8G G68A, with 0.119. Then U8C A41C, with 0.72; and U8C A41G, with 0.458.

As to U9A U58G, the self-cleavage came to 0.494. For the variant U9A U58A, the self-cleavage worked out at 0.344. In the case of U9A C18U it was 0.775; in that of U8G A64G, 0.476. In the case of U8C U63G it was 0.188.

Consider U9C G51C, for which the self-cleavage amounted to 0.761. In the case of U9C G51A it was 0.775.

As to U9A A22C, the self-cleavage worked out at 0.773.

Take U9A A22G: the self-cleavage is 0.605.

U9C U33C: the self-cleavage stood at 0.104. Consider U8G A47C, for which the self-cleavage came out at 0.266. Then U9A G42U, with 0.253; and U8C G42U, with 0.252; and U9C G21A, with 0.5. U9C G21C: the self-cleavage was found to be 0.479. Then U8G U9A, with 0.734; and U7G G13C, with 0.618; and U8A A71G, with 0.699. Then U9A A71G, with 0.707.

As for U8G U58C, the self-cleavage worked out at 0.725. On to U7G U20A, for which the self-cleavage is 0.294.

U9A C50G: the self-cleavage turned out to be 0.214. With U9A C50A, the self-cleavage turned out to be 0.264.

Take U7G U58G: the self-cleavage stood at 0.645.

In the case of U7G U58A, the self-cleavage stood at 0.655. Then U8A G29U, with 0.0651; and U8A G29C, with 0.104. In the case of U8C G32A it was 0.198; in that of U8A G68A, 0.179. Then U8C A43U, with 0.241; and U8C A43G, with 0.16. For the variant U9A U53G, the self-cleavage was 0.703.

On to U9A U53C, for which the self-cleavage came out at 0.732. As for U8A G42C, the self-cleavage came out at 0.147.

With U8A G42U, the self-cleavage came out at 0.261.

Take U8G A71C: the self-cleavage amounted to 1.34.

Take U9C A71U: the self-cleavage is 0.68. On to U7G G34A, for which the self-cleavage worked out at 0.984. Take U7G G34C: the self-cleavage amounted to 1.39. Regarding U9A A49U, the self-cleavage was found to be 0.179.

For U9C G57C, the self-cleavage was 0.0619. Consider U7G U8G, for which the self-cleavage was 0.768. In the case of U9A A39U it was 0.335; in that of U7G U60G, 0.484; in that of U7G G32U, 0.135. Turning to U7G G32A, the self-cleavage is 0.173. With U8C C18G, the self-cleavage was found to be 0.528. U8C A36G: the self-cleavage worked out at 0.928. In the case of U9A A45G it was 0.172; in that of U9A G13C, 0.399. U8C A64C: the self-cleavage is 0.043. Then U8A G40U, with 0.109; and U8C U20A, with 0.604; and U8C U20G, with 0.439. In the case of U8G G13U it was 0.438; in that of U8A G27C, 0.186; in that of U8G U60A, 0.647. In the case of U8G U60C it was 0.845.

As to U8G G21U, the self-cleavage turned out to be 0.523. In the case of U9C A30C it was 0.0706.

Consider U8G A30C, for which the self-cleavage stood at 0.141. Then U8G A30G, with 0.119; and U8C C48A, with 0.136; and U8C U55G, with 0.101. Consider U8C A31G, for which the self-cleavage is 0.241. Then U8C A31U, with 0.14; and U8C A31C, with 0.0859; and U9A A35G, with 0.744. As for U9A A35U, the self-cleavage stood at 0.578. In the case of U7G C65U it was 0.369; in that of U8G A24C, 0.592; in that of U8G A24U, 0.595. With U9A G32A, the self-cleavage was found to be 0.179.

Turning to U7G C46U, the self-cleavage was determined as 0.129. In the case of U9C G13U, the self-cleavage turned out to be 0.469. Take U7G G29A: the self-cleavage amounted to 0.22.

For U7G G29C, the self-cleavage is 0.134.

Regarding U8G G69U, the self-cleavage was 0.29. Then U9A A59G, with 0.154. In the case of U9A A59C it was 0.0956. Turning to U9C A36G, the self-cleavage came out at 0.882. Turning to U8C G40A, the self-cleavage was 0.274.

Turning to U7G C16A, the self-cleavage worked out at 0.929. For U8G A22U, the self-cleavage was found to be 0.582. Turning to U8G G17U, the self-cleavage was 0.651. As for U8A G57C, the self-cleavage was determined as 0.0778. U8A G57A: the self-cleavage amounted to 0.196.

On to U8A G57U, for which the self-cleavage came out at 0.267.

As for U7G G25A, the self-cleavage came out at 0.316. In the case of U9A A24C, the self-cleavage was 0.514. U9A A24U: the self-cleavage stood at 0.466. In the case of U8C C16G it was 0.651. Regarding U8C C16A, the self-cleavage is 0.84. Consider U8C C16U, for which the self-cleavage is 0.734.

For U8G G56U, the self-cleavage stood at 0.169. As to U9A U70G, the self-cleavage came out at 0.532. As to U9C A24U, the self-cleavage was 0.677. On to U9A G25C, for which the self-cleavage is 0.232. U9A G25A: the self-cleavage turned out to be 0.191. Regarding U8G A11G, the self-cleavage came to 0.704. In the case of U8A U33G it was 0.0531. As to U8A U33A, the self-cleavage was determined as 0.0975. Regarding U8C A61G, the self-cleavage was 0.0942. With U8G G27A, the self-cleavage was found to be 0.43. As for U8G G27C, the self-cleavage stood at 0.139.

Regarding U7G G57C, the self-cleavage turned out to be 0.206. In the case of U7G G68U, the self-cleavage came to 0.269. Then U8A A24G, with 0.511; and U8C G19C, with 0.232; and U8G A45C, with 0.111. With U8C G25A, the self-cleavage was determined as 0.197. With U8C G25C, the self-cleavage is 0.148.

Take U8C G27A: the self-cleavage stood at 0.443. In the case of U8C G27C it was 0.152.

Regarding U9A U60G, the self-cleavage came out at 0.484.

Regarding U8C G15U, the self-cleavage was 0.932.

For U8C G15C, the self-cleavage was 0.565. In the case of U8A G25C, the self-cleavage is 0.155. In the case of U8G G29A, the self-cleavage amounted to 0.154.

With U8G G29U, the self-cleavage was 0.112. Then U8C U58A, with 0.552; and U8C U58C, with 0.911. In the case of U8G A39G it was 0.263.

U8A A61C: the self-cleavage was determined as 0.165.

With U9C C10A, the self-cleavage is 0.696. As for U9C C10U, the self-cleavage turned out to be 0.527. Regarding U8A U63C, the self-cleavage was determined as 0.218. As to U8C G51A, the self-cleavage is 0.855. Turning to U8C G51C, the self-cleavage is 0.701. In the case of U8C G51U it was 0.901. Then U8G A36U, with 0.557.

Turning to U8C A47C, the self-cleavage came to 0.131. In the case of U9C A22C it was 0.799; in that of U9C A22G, 1.04.

For the variant U9A C48A, the self-cleavage was 0.144.

These data come from the RNAGym collection of RNA variant scans (doi:10.7554/elife.80360).
